Test results: US6306832, “Peptide antiestrogen compositions and methods for treating breast cancer” (University of California)

Target: estrogen receptor alpha (ER), purified recombinant (Homo sapiens, UniProt P03372 P03372:1-595)
Test: EMSA; 60 nM ER, 100 nM estradiol, HEPES pH 7.5, 100 mM KCl, 1 mM EDTA, poly(dI-dC), 4 C; competed by 100x unlabelled ERE; blocked by 0.5 uM pY8/pY10/mY8 peptides, not by conY
Details: tags: Panvera (Madison, WI); chain copies: 2 (homodimer, stated); label: 32P 5'-end (polynucleotide kinase)
Experimental: FIG. 6B. Purified human ER (60 nM) was incubated with control solution (CON), a 100-fold molar excess of unlabelled ERE (100 ERE) or with peptides at 250 nM or 500 nM. ER was incubated with peptides for 15 min at 4° C. followed by addition of 100 nM estradiol-17β and ^32P-ERE. Peptides included phosphotyrosyl-octapeptide (pY8), control non-phosphorylated octapeptide (conY), malonyltyrosyl-octapeptide(mY8), phosphotyrosine amino acid alone (pY), as an additional control, and a phosphotyrosyl-decapeptide, N-Val-Pro-Leu-pTyr-Asp-Leu-Leu-Leu-Glu-Met-C (pYl 0) (SEQ ID NO:3). Although not shown, the effect of conY at 500 nM was the same as that shown at a concentration of 250 nM.
Interaction of ER with nuclear ERE is prerequisite for activation of transcription. To assess the specific binding of ER with ERE, purified recombinant human ER from MCF-7 breast cancer cells were used. A double-stranded 27-bp probe (5'-[…]-3') (SEQ ID NO:12) encoding the Xenopus vitellogenin A_2 ERE was ^32P-end-labeled with polynucleotide kinase. Gel mobility shift assays for the human ER were performed as described (Arnold et al., 1995a; Arnold and Notides, 1995; Arnold et al., 1995b). […]

estrogen receptor alpha (ER), purified recombinant, sequence (P03372 whole entry, one chain of several): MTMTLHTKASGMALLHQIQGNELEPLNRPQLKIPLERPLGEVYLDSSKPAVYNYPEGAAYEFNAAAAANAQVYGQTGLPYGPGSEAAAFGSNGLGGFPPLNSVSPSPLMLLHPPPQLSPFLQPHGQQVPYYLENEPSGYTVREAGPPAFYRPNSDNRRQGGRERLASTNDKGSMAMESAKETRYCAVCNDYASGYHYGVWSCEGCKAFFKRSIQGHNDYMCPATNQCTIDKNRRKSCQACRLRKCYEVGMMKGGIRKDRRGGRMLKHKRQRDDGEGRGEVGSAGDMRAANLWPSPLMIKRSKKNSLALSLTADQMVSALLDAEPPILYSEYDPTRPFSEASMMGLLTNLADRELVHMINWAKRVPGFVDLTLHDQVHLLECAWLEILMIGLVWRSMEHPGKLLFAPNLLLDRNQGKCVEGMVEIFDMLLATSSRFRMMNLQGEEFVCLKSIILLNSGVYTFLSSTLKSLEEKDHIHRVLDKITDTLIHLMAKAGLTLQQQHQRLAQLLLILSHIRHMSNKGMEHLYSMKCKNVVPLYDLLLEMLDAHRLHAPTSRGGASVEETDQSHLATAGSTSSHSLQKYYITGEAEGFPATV

B1: vitellogenin A2 ERE 27-bp probe (dsDNA)
DNA 1: GATCCTAGAGGTCACAGTGACCTACGA
DNA 2: TCGTAGGTCACTGTGACCTCTAGGATC
binding result: binds
